Data taken from patent US20210338848A1, “COMPOSITIONS AND METHODS FOR DIAGNOSING AND TREATING MACROPHAGE-RELATED DISORDERS USING CARBOHYDRATE-BASED MACR[…]” (Cardinal Health 414, LLC, priority 2016, published 2021).

What was measured:
mannose receptor CD206 = mannose receptor CD206 (Homo sapiens, UniProt P22897); settings: when administered to mammals; no other receptors bind or transduce
Text: CD206 is a C-type […] binding protein found on the surface of macrophages.

[1] = used to stage breast cancer and melanoma; cited from earlier work

Chain of mannose receptor CD206 (P22897 19-1456): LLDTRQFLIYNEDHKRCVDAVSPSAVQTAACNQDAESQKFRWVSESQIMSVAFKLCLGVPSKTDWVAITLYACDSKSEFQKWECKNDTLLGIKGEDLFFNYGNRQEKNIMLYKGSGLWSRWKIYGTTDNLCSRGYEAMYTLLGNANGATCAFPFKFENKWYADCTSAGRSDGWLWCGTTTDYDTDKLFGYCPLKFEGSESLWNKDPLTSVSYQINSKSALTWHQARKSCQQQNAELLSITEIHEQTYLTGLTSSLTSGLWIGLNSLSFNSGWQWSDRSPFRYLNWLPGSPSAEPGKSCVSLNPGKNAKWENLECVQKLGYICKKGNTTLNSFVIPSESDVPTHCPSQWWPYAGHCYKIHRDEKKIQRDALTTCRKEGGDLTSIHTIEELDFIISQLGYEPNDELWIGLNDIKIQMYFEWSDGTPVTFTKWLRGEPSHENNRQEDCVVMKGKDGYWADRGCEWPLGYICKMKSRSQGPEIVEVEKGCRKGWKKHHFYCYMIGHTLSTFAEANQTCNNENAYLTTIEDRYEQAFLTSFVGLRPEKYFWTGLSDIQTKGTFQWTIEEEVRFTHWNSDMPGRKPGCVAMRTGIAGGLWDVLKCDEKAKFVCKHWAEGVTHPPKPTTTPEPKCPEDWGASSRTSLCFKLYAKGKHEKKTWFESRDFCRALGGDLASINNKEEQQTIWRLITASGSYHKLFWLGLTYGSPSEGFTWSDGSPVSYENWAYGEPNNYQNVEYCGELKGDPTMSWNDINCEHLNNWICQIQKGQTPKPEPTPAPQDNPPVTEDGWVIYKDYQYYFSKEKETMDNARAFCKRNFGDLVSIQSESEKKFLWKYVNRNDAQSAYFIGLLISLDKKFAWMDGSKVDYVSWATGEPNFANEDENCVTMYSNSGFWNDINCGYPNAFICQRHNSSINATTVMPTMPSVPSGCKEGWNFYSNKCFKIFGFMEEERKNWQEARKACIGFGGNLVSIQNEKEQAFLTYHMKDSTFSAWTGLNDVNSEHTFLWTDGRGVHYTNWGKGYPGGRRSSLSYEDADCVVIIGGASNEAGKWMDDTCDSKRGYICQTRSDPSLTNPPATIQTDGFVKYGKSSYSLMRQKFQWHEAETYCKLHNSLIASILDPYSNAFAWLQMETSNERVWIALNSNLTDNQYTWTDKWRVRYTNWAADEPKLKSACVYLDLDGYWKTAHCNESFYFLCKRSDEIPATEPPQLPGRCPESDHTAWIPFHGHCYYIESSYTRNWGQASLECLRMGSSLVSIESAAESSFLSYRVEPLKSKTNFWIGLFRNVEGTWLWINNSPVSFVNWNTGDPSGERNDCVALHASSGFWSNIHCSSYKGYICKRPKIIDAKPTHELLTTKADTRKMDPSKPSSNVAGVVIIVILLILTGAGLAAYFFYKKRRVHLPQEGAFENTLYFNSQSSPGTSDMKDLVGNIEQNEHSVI

| Substance | receptor binding specificity (mannose receptor CD206) | clearance from injection site [1] | uptake by distal or second-echelon lymph nodes [1] | uptake by sentinel lymph node(s) [1] |
| --- | --- | --- | --- | --- |
| dextran 3-[(2-aminoethyl)thio]propyl 17-carboxy-10,13,16-tris(carboxymethyl)-8-oxo-4-thia-7,10,13,16-tetraazaheptadec-1-yl 3-[[2-[[1-imino-2-(D-mannopyranosylthio) ethyl]amino]ethyl]thio]propyl ether complexes [tilmanocept] | bind exclusively to the mannose receptor CD206 | – | – | – |
| technetium Tc 99m, dextran 3-[(2-aminoethyl)thio]propyl 17-carboxy-10,13,16-tris(carboxymethyl)-8-oxo-4-thia-7,10,13,16-tetraazaheptadec-1-yl 3-[[2-[[1-imino-2-(D-mannopyranosylthio) ethyl]amino]ethyl]thio]propyl ether complexes [technetium Tc 99m labeled tilmanocept] | – | rapid clearance from an injection site | low uptake by distal or second-echelon lymph nodes | rapid and sustained uptake by the sentinel lymph node(s) |
